Measurements reported in the supplement of paper PMC10567573.

B1: POLD4 (parent)
chain: ITDSYPVVKRREGPAGHSKGELAP

Variants of: B1
Assay: protein stability index of a GFP-peptide fusion (GPS, HEK-293T) (PSI 1-6); higher = more stable
Details: c terminus: a fixed tail appended
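Note: lentivirally expressed fusions sorted by FACS into six bins by GFP to DsRed ratio, PSI derived from sequencing read proportions per bin multiplied by bin number.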

Compared with ITLSYPVVKRREGPAGHSKGELAP [D3L], ITMSYPVVKRREGPAGHSKGELAP [D3M] is higher in protein stability index: 2.46 for the first, 3.2 for the second.

ITNSYPVVKRREGPAGHSKGELAP [D3N] and ITSSYPVVKRREGPAGHSKGELAP [D3S] are the same in protein stability index: 2.68 for the first, 2.68 for the second.

First: ITTSYPVVKRREGPAGHSKGELAP [D3T]
Second: ITVSYPVVKRREGPAGHSKGELAP [D3V]
The protein stability index of the first is higher: 4.2 for the first, 2 for the second.

First: ITWSYPVVKRREGPAGHSKGELAP [D3W]
Second: ITYSYPVVKRREGPAGHSKGELAP [D3Y]
The protein stability index of the first is lower: 1.99 for the first, 2.74 for the second.

Compared with ITDDYPVVKRREGPAGHSKGELAP [S4D], ITDEYPVVKRREGPAGHSKGELAP [S4E] is lower in protein stability index: 5.06 for the first, 4.58 for the second.

Going from ITDHYPVVKRREGPAGHSKGELAP [S4H] to ITDIYPVVKRREGPAGHSKGELAP [S4I], the protein stability index rises from 2.67 to 3.51.

Going from ITDNYPVVKRREGPAGHSKGELAP [S4N] to ITDPYPVVKRREGPAGHSKGELAP [S4P], the protein stability index rises from 4.16 to 4.58.

Going from ITDQYPVVKRREGPAGHSKGELAP [S4Q] to ITDRYPVVKRREGPAGHSKGELAP [S4R], the protein stability index rises from 3.81 to 3.87.

First: ITDTYPVVKRREGPAGHSKGELAP [S4T]
Second: ITDYYPVVKRREGPAGHSKGELAP [S4Y]
The protein stability index of the first is lower: 2.56 for the first, 2.57 for the second.

Compared with ITDSCPVVKRREGPAGHSKGELAP [Y5C], ITDSDPVVKRREGPAGHSKGELAP [Y5D] is higher in protein stability index: 3.78 for the first, 5.56 for the second.

Compared with ITDSEPVVKRREGPAGHSKGELAP [Y5E], ITDSHPVVKRREGPAGHSKGELAP [Y5H] is lower in protein stability index: 5.69 for the first, 5.39 for the second.

First: ITDSIPVVKRREGPAGHSKGELAP [Y5I]
Second: ITDSKPVVKRREGPAGHSKGELAP [Y5K]
The protein stability index of the first is lower: 4.84 for the first, 5.3 for the second.

First: ITDSLPVVKRREGPAGHSKGELAP [Y5L]
Second: ITDSMPVVKRREGPAGHSKGELAP [Y5M]
The protein stability index of the first is higher: 4.59 for the first, 3.5 for the second.

Compared with ITDSNPVVKRREGPAGHSKGELAP [Y5N], ITDSPPVVKRREGPAGHSKGELAP [Y5P] is higher in protein stability index: 4.98 for the first, 5.13 for the second.

Compared with ITDSQPVVKRREGPAGHSKGELAP [Y5Q], ITDSRPVVKRREGPAGHSKGELAP [Y5R] is lower in protein stability index: 5.68 for the first, 4.72 for the second.

Going from ITDSSPVVKRREGPAGHSKGELAP [Y5S] to ITDSTPVVKRREGPAGHSKGELAP [Y5T], the protein stability index falls from 4.91 to 3.5.

Going from ITDSVPVVKRREGPAGHSKGELAP [Y5V] to ITDSWPVVKRREGPAGHSKGELAP [Y5W], the protein stability index falls from 4.23 to 3.08.

Going from ITDSYAVVKRREGPAGHSKGELAP [P6A] to ITDSYDVVKRREGPAGHSKGELAP [P6D], the protein stability index rises from 3.48 to 5.12.

First: ITDSYEVVKRREGPAGHSKGELAP [P6E]
Second: ITDSYFVVKRREGPAGHSKGELAP [P6F]
The protein stability index of the first is higher: 4.33 for the first, 3.52 for the second.

Compared with ITDSYGVVKRREGPAGHSKGELAP [P6G], ITDSYHVVKRREGPAGHSKGELAP [P6H] is higher in protein stability index: 4.67 for the first, 5 for the second.

Compared with ITDSYIVVKRREGPAGHSKGELAP [P6I], ITDSYLVVKRREGPAGHSKGELAP [P6L] is lower in protein stability index: 4.17 for the first, 3.75 for the second.

First: ITDSYNVVKRREGPAGHSKGELAP [P6N]
Second: ITDSYRVVKRREGPAGHSKGELAP [P6R]
The protein stability index of the first is higher: 4.51 for the first, 2.94 for the second.

Compared with ITDSYSVVKRREGPAGHSKGELAP [P6S], ITDSYTVVKRREGPAGHSKGELAP [P6T] is higher in protein stability index: 3.53 for the first, 4.55 for the second.

Going from ITDSYWVVKRREGPAGHSKGELAP [P6W] to ITDSYPAVKRREGPAGHSKGELAP [V7A], the protein stability index rises from 3.4 to 4.02.

Going from ITDSYPCVKRREGPAGHSKGELAP [V7C] to ITDSYPDVKRREGPAGHSKGELAP [V7D], the protein stability index rises from 3.63 to 4.8.

First: ITDSYPEVKRREGPAGHSKGELAP [V7E]
Second: ITDSYPFVKRREGPAGHSKGELAP [V7F]
The protein stability index of the first is higher: 5.27 for the first, 3.45 for the second.

First: ITDSYPGVKRREGPAGHSKGELAP [V7G]
Second: ITDSYPHVKRREGPAGHSKGELAP [V7H]
The protein stability index of the first is higher: 4.93 for the first, 4.4 for the second.

Going from ITDSYPIVKRREGPAGHSKGELAP [V7I] to ITDSYPKVKRREGPAGHSKGELAP [V7K], the protein stability index rises from 3.42 to 3.56.

First: ITDSYPLVKRREGPAGHSKGELAP [V7L]
Second: ITDSYPNVKRREGPAGHSKGELAP [V7N]
The protein stability index of the first is lower: 3.44 for the first, 4.2 for the second.

Going from ITDSYPPVKRREGPAGHSKGELAP [V7P] to ITDSYPQVKRREGPAGHSKGELAP [V7Q], the protein stability index falls from 5.22 to 3.79.

Going from ITDSYPSVKRREGPAGHSKGELAP [V7S] to ITDSYPTVKRREGPAGHSKGELAP [V7T], the protein stability index falls from 4.76 to 4.18.

Going from ITDSYPWVKRREGPAGHSKGELAP [V7W] to ITDSYPYVKRREGPAGHSKGELAP [V7Y], the protein stability index falls from 4.17 to 4.14.

Compared with ITDSYPVCKRREGPAGHSKGELAP [V8C], ITDSYPVDKRREGPAGHSKGELAP [V8D] is higher in protein stability index: 3.79 for the first, 5.21 for the second.

Compared with ITDSYPVEKRREGPAGHSKGELAP [V8E], ITDSYPVFKRREGPAGHSKGELAP [V8F] is lower in protein stability index: 5.31 for the first, 4.32 for the second.

First: ITDSYPVHKRREGPAGHSKGELAP [V8H]
Second: ITDSYPVIKRREGPAGHSKGELAP [V8I]
The protein stability index of the first is higher: 4.07 for the first, 3.26 for the second.

Going from ITDSYPVKKRREGPAGHSKGELAP [V8K] to ITDSYPVMKRREGPAGHSKGELAP [V8M], the protein stability index rises from 3.2 to 3.98.

First: ITDSYPVNKRREGPAGHSKGELAP [V8N]
Second: ITDSYPVPKRREGPAGHSKGELAP [V8P]
The protein stability index of the first is lower: 4.21 for the first, 4.35 for the second.

First: ITDSYPVQKRREGPAGHSKGELAP [V8Q]
Second: ITDSYPVRKRREGPAGHSKGELAP [V8R]
The protein stability index of the first is higher: 3.1 for the first, 2.88 for the second.

Compared with ITDSYPVSKRREGPAGHSKGELAP [V8S], ITDSYPVTKRREGPAGHSKGELAP [V8T] is lower in protein stability index: 4.84 for the first, 4.42 for the second.

First: ITDSYPVWKRREGPAGHSKGELAP [V8W]
Second: ITDSYPVYKRREGPAGHSKGELAP [V8Y]
The protein stability index of the first is lower: 3.16 for the first, 4.34 for the second.

Compared with ITDSYPVVARREGPAGHSKGELAP [K9A], ITDSYPVVCRREGPAGHSKGELAP [K9C] is lower in protein stability index: 4.65 for the first, 3.95 for the second.

Going from ITDSYPVVDRREGPAGHSKGELAP [K9D] to ITDSYPVVERREGPAGHSKGELAP [K9E], the protein stability index rises from 4.63 to 4.83.

Going from ITDSYPVVFRREGPAGHSKGELAP [K9F] to ITDSYPVVGRREGPAGHSKGELAP [K9G], the protein stability index rises from 3.1 to 5.01.

Compared with ITDSYPVVHRREGPAGHSKGELAP [K9H], ITDSYPVVIRREGPAGHSKGELAP [K9I] is higher in protein stability index: 2.72 for the first, 3.8 for the second.

Going from ITDSYPVVMRREGPAGHSKGELAP [K9M] to ITDSYPVVPRREGPAGHSKGELAP [K9P], the protein stability index rises from 4.06 to 4.26.

Compared with ITDSYPVVRRREGPAGHSKGELAP [K9R], ITDSYPVVSRREGPAGHSKGELAP [K9S] is higher in protein stability index: 3.25 for the first, 4.41 for the second.

Going from ITDSYPVVTRREGPAGHSKGELAP [K9T] to ITDSYPVVVRREGPAGHSKGELAP [K9V], the protein stability index falls from 4.71 to 4.06.
